Assay results taken from the supplement of paper PMC9732359.
± gives the uncertainty stated by the source.

Assay: protein stability index of a GFP-peptide fusion (yeast GPS) (PSI 1-4); higher = more stable; sorted into four equal gates, so the index is relative within each strain
Procedure, shortened: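 Yeast carrying a pooled library were grown to mid-log phase in leucine-free medium. Each library plasmid expresses Cherry and has a tiled 17-residue yeast protein peptide fused downstream of GFP. Cells were sorted into four equal gates by GFP/Cherry ratio, and plasmids from each gate were PCR-amplified, Illumina-sequenced and assigned to strains by barcode. Summing, across gates, the read frequency times the gate number gave each peptide's protein stability index.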

Sequence	protein stability index (doa10∆)	protein stability index (pdr5∆)	protein stability index (san1∆)	protein stability index (ubr1∆)
LQSDKNFLDNCLFENDL [ITC1]	2.13 ± 0.079	3.03 ± 0.073	2.92 ± 0.055	3.01 ± 0.059
LQSLTSKGYVKTQFSWQ [RPS10A]	3.2 ± 0.1	2.94 ± 0.096	2.76 ± 0.086	3.07 ± 0.065
LRADKLYEKLKQEIMMS [ISW2]	1.63 ± 0.14	1.38 ± 0.18	1.78 ± 0.25	1.41 ± 0.15
LREVVELPLLSPERFAT [RPT1]	2.13 ± 0.084	2.54 ± 0.07	2.47 ± 0.1	2.33 ± 0.11
LRKLKKMNNKPERFMVF [RPC53]	3.19 ± 0.099	3.35 ± 0.14	3.03 ± 0.099	3.18 ± 0.14
LRKNKLGYARFILLDRL [SMC4]	1.15 ± 0.042	1.25 ± 0.048	1.14 ± 0.14	1.15 ± 0.055
LRLRGGIIEPSLKALAS [RPL40A]	3.1 ± 0.046	3.02 ± 0.048	2.7 ± 0.048	3.02 ± 0.045
LRNLHMKRMVAQWERSK [SNF12]	2.88 ± 0.076	2.89 ± 0.1	2.89 ± 0.067	2.88 ± 0.086
LRPGQEISLKAHCILGI [RPC40]	2.12 ± 0.14	2.49 ± 0.13	2.14 ± 0.099	1.82 ± 0.12
LRQKHEFLEDFDLVRNI [SMC2]	3.1 ± 0.11	3.05 ± 0.098	3.14 ± 0.063	3.34 ± 0.099
LRQQQQQQDQPEQSEQP [RPN10]	3.21 ± 0.09	3.28 ± 0.076	2.74 ± 0.081	3.17 ± 0.064
LRQQYEIELKKLPKVYK [SWI1]	2.04 ± 0.067	1.75 ± 0.066	2.22 ± 0.12	2.75 ± 0.073
LRRLEILVPDLYHLVIM [ECM29]	1.59 ± 0.054	1.54 ± 0.036	1.46 ± 0.065	1.61 ± 0.032
LSAADIVAQSEVEVSTR [RPO31]	2.33 ± 0.09	2.53 ± 0.11	2.54 ± 0.094	2.84 ± 0.068
LSCVKNDTISEDILQGI [NUT1]	2.69 ± 0.067	2.35 ± 0.073	2.53 ± 0.11	3.17 ± 0.076
LSEFGIKKMLHLVWMKG [YCS4]	3.17 ± 0.17	3.47 ± 0.11	2.31 ± 0.15	3.29 ± 0.17
LSESPVDFEKFETFLVD [SIN4]	3.03 ± 0.12	2.73 ± 0.21		2.76 ± 0.21
LSFTPTTVIGIRGSDQA [RPN2]	1.65 ± 0.089	1.61 ± 0.073	1.78 ± 0.15	1.59 ± 0.062
LSGSISERIVDCIIRLP [FAS1]	1.35 ± 0.092	1.16 ± 0.09	1.23 ± 0.27	1.85 ± 0.046
LSHENNVMLEKIKDNKE [RPT5]	2.49 ± 0.063	2.9 ± 0.054	2.46 ± 0.054	2.71 ± 0.045
LSHYIRQCFQDNCCDFK [MED1]	2.78 ± 0.045	2.75 ± 0.052	2.94 ± 0.05	2.83 ± 0.032
LSILKGDYSQATVLSRK [RPN5]	3.08 ± 0.07	3.02 ± 0.06	3.03 ± 0.075	2.72 ± 0.056
LSKFFFFIFVFNFVLLG [COB]	1.42 ± 0.13	1.19 ± 0.12	1.09 ± 0.25	1.22 ± 0.15
LSKLCVPVANQFINLAG [QCR7]	1.98 ± 0.059	2.13 ± 0.071	1.81 ± 0.058	1.94 ± 0.033
LSLTTVPCDRIEKSRLF [SNF6]	2.51 ± 0.065	2.64 ± 0.076	2.66 ± 0.053	2.29 ± 0.044
LSQPVSASKHEYSDNFP [SIR4]	2.24 ± 0.084	2.34 ± 0.046	2.82 ± 0.071	2.89 ± 0.046

Sequence	protein stability index (doa10∆)	protein stability index (pdr5∆)	protein stability index (san1∆)	protein stability index (ubr1∆)
LSQQQKDAQKKDIEKLT [YIL149C/MLP2]	2.79 ± 0.079	2.95 ± 0.069	2.78 ± 0.064	2.97 ± 0.075
LSRAEYDSDSDSSVEDS [LIN1]	3.14 ± 0.17	2.96 ± 0.16	2.87 ± 0.085	3.16 ± 0.084
LSRGDDEVTIRRTVGLK [SMC3]	3.17 ± 0.096	2.73 ± 0.083	2.77 ± 0.078	2.55 ± 0.063
LSSIAERVRNFAVIYLC [DIB1]	1.51 ± 0.083	2.04 ± 0.11	1.71 ± 0.11	1.88 ± 0.12
LSSMRFKPSQEPEFHAL [RRI1]	2.58 ± 0.053	2.75 ± 0.05	2.75 ± 0.075	2.42 ± 0.04
LSTDATSADLKSKAEEL [UBP6]	3.17 ± 0.24	2.64 ± 0.13	2.95 ± 0.19	3.11 ± 0.21
LSTSAFMEIVLEYNVAL [YML031W/NDC1]	1.98 ± 0.037	1.71 ± 0.052	1.78 ± 0.08	2.12 ± 0.067
LTADYDALDIANRIGYI [RPL25]	3.33 ± 0.045	3.4 ± 0.062	3.54 ± 0.038	3.43 ± 0.052
LTEQIRELREVIELPLK [RPT4]	2.69 ± 0.14	3.73 ± 0.27	3.12 ± 0.17	3.06 ± 0.087
LTGEWSTKFDYPPMPFD [FAS1]	2.85 ± 0.056	2.96 ± 0.062	2.85 ± 0.048	2.94 ± 0.037
LTGTVVSTKMHRTIVIR [RPS11A]	2.06 ± 0.063	2.25 ± 0.046	2.14 ± 0.08	1.87 ± 0.037
LTLTDSQLAQVAAFVNN [BRR2]	2.14 ± 0.084	2.18 ± 0.099	2.37 ± 0.15	2.69 ± 0.061
LTNQQPKNLSTPSTSSN [CSE2]	2.94 ± 0.067	2.84 ± 0.068	2.67 ± 0.066	2.79 ± 0.059
LTRFSHDADLEVSMNSI [RPN1]	3.24 ± 0.099	3.14 ± 0.056	3.08 ± 0.05	3.1 ± 0.037
LTSPAFGPHVDVNDVLT [GRR1]	3.4 ± 0.085	3.23 ± 0.062	3.35 ± 0.063	3.27 ± 0.056
LTTFANQVMMDRKIQGW [ARP7]	2.69 ± 0.081	2.62 ± 0.059	2.45 ± 0.076	2.65 ± 0.049
LTTQFVTDKYTAKKTNR [YDL088C/ASM4]	2.74 ± 0.14	2.83 ± 0.093		2.8 ± 0.11
LTVENKLQFETDRLSTT [SMC1]	3.24 ± 0.077	3.05 ± 0.05	2.84 ± 0.047	2.94 ± 0.044
LVDLKKELAELKVQKLS [RPL35A]	1.2 ± 0.066	1.59 ± 0.097	1.46 ± 0.12	1.68 ± 0.085
LVESVDRFKPNLDIAKD [MED4]	3.37 ± 0.29	3.33 ± 0.17	3.15 ± 0.072	2.9 ± 0.15
LVHGIFGAKMSRTLILS [SIN4]	1.8 ± 0.063	1.41 ± 0.044	1.36 ± 0.088	1.65 ± 0.039
LVILKPDLNIDRNNSTN [SIN4]	2.73 ± 0.057	2.23 ± 0.064	2.56 ± 0.065	2.67 ± 0.041
LVKDRKFLREVFVDGEA [RPO21]	3.1 ± 0.14	3.46 ± 0.27	2.62 ± 0.1	2.85 ± 0.21
LVKIDDLSANQRETMKE [SMC1]	3.29 ± 0.083	3.22 ± 0.091	3 ± 0.11	3.45 ± 0.089
LVQQIQKETQKVTKIWS [PRP28]	2.39 ± 0.06	2.58 ± 0.064	2.52 ± 0.058	2.26 ± 0.047
LVREIAQDFKTDLRFQS [HHT1]	2.55 ± 0.097	3 ± 0.078	2.65 ± 0.076	2.88 ± 0.099
